Test results taken from patent US20200040059A1.

What was measured:
CTLA4 (human) [1] = target: CTLA4 (human) (UniProt P16410); assay: flow cytometry, MFI on CTLA4 cells over MFI on CD28 cells
CTLA4 (human) [2] = target: CTLA4 (human) (UniProt P16410); assay: flow cytometry on HEK293 cells transfected with CTLA4
PD-L1 (human) [3] = target: PD-L1 (human) (UniProt Q9NZQ7); assay: flow cytometry on HEK293 cells transfected with PD-L1
CD28 (human) [4] = target: CD28 (human) (UniProt P10747); assay: flow cytometry on HEK293 cells transfected with CD28
[5] = target: T1, human CD226, full length, expressed on transfected Expi293 cells (human) (UniProt Q15762); assay: flow cytometry, Expi293 cells transfected with full-length human CD226
T1 sequence: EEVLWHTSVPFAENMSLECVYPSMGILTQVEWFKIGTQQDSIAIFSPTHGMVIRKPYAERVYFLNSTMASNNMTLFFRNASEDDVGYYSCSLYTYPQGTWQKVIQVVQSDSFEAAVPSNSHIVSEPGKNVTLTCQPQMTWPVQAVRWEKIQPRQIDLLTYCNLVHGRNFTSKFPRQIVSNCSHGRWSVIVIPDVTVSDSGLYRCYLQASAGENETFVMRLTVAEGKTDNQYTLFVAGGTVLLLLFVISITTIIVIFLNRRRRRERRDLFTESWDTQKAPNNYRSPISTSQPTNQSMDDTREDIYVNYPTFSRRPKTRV

TIGIT (human) = target: T2, TIGIT (human) (UniProt Q495A1); assay: flow cytometry on TIGIT-expressing cells
T2 sequence: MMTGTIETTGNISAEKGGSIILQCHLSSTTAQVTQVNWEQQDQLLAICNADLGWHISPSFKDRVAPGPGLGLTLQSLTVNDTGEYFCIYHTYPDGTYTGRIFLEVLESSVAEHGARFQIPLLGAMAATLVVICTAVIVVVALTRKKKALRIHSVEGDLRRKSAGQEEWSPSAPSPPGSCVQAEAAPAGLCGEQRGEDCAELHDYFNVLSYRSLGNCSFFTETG

[6] = target: human CD112R, full length, expressed on transfected Expi293 cells (human) (UniProt Q6DKI7); assay: flow cytometry, Expi293 cells transfected with full-length human CD112R
human CD112R, full length, expressed on transfected Expi293 cells (human), sequence (Q6DKI7 whole entry): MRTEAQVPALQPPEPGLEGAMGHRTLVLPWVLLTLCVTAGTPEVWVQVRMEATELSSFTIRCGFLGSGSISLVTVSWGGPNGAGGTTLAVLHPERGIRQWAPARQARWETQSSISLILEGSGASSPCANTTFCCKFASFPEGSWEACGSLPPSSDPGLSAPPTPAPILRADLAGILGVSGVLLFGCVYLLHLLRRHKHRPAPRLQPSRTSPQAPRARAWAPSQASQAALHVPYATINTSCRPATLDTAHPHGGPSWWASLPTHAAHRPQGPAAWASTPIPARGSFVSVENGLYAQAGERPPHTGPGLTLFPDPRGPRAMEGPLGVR

CD28 (human) [7] = target: CD28 (human) (UniProt P10747); assay: flow cytometry, transfected cells
human B7-H6 (human) [8] = target: human B7-H6 (human) (UniProt Q68D85); assay: flow cytometry, transfected cells
human B7-H6 (human), sequence (Q68D85 25-454): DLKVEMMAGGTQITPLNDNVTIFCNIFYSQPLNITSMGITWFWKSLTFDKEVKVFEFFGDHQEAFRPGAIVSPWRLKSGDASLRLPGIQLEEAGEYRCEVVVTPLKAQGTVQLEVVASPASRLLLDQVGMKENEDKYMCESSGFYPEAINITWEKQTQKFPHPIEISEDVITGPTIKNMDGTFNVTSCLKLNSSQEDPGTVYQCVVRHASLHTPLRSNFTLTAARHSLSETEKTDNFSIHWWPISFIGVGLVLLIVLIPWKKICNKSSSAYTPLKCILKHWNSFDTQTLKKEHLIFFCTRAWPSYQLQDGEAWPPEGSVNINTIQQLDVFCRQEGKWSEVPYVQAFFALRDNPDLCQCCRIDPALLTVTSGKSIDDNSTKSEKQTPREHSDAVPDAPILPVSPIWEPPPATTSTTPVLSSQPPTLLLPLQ

CD28 (human) [9] = target: CD28 (human) (UniProt P10747); assay: flow cytometry; MFI vs m14
human B7-H6 (human) [10] = target: human B7-H6 (human) (UniProt Q68D85); assay: flow cytometry; MFI vs m14
PD-L1 (human) [11] = target: PD-L1 (human) (UniProt Q9NZQ7); assay: flow cytometry, transfected cells
PD-L1 (human) [12] = target: PD-L1 (human) (UniProt Q9NZQ7); assay: flow cytometry; MFI vs m21
CD28 (human) [13] = target: CD28 (human) (UniProt P10747); assay: flow cytometry; MFI vs m21
CTLA4 (human) [14] = target: CTLA4 (human) (UniProt P16410); assay: flow cytometry, transfected cells
CTLA4 (human) [15] = target: CTLA4 (human) (UniProt P16410); assay: flow cytometry; MFI vs m21
human ICOS (human) = assay: flow cytometry, transfected cells
human ICOS (human), sequence (Q9Y6W8 whole entry): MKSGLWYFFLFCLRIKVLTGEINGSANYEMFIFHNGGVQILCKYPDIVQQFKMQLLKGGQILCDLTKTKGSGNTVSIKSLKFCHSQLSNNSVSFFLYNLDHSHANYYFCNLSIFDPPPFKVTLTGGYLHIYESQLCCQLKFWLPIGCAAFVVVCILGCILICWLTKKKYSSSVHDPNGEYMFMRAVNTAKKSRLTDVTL

PD-L1 (human) [16] = target: PD-L1 (human) (UniProt Q9NZQ7); assay: flow cytometry, transfected cells; column head doubtful
CTLA4 (human) [17] = target: CTLA4 (human) (UniProt P16410); assay: as above
human B7-H6 (human) [18] = target: human B7-H6 (human) (UniProt Q68D85); assay: flow cytometry; MFI vs m9
human B7-H6 (human) [19] = target: human B7-H6 (human) (UniProt Q68D85); assay: flow cytometry; MFI vs m10
[20] = target: T3, CD96 (expressed on cells) (UniProt P40200); assay: flow cytometry on cells expressing the target, 20 nM
T3 sequence (looked up): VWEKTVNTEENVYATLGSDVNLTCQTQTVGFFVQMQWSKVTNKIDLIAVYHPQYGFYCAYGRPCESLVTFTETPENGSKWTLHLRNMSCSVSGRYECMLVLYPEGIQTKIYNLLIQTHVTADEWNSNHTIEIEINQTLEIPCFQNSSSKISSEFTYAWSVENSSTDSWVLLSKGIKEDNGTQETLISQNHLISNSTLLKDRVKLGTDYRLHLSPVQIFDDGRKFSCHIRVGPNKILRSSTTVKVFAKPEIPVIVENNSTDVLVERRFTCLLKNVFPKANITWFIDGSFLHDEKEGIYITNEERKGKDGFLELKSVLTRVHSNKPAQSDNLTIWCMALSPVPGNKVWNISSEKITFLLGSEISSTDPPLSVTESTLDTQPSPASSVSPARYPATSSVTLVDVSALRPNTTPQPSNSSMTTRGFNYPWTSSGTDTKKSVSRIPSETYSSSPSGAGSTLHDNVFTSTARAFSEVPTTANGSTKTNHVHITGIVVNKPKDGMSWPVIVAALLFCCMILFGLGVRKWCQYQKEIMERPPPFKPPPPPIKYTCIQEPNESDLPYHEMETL

[21] = target: CD112R (full length, expressed on transfected cells) (human) (UniProt Q6DKI7); assay: as above
CD112R (full length, expressed on transfected cells) (human), sequence (Q6DKI7 whole entry): as the sequence (Q6DKI7 whole entry) above

CD112R (human) = CD112R (human) (UniProt Q6DKI7); assay: flow cytometry on CD112R-expressing cells
CD112R (human), sequence (Q6DKI7 whole entry): as above

CD96 = target: T4, CD96 (UniProt P40200); assay: flow cytometry on CD96-expressing cells
T4 sequence (looked up): T3 sequence (looked up)

[22] = target: human ICOS, full-length, expressed on transfected Expi293 cells (human) (UniProt Q9Y6W8); assay: flow cytometry on ICOS-expressing Expi293 cells
human ICOS, full-length, expressed on transfected Expi293 cells (human), sequence (Q9Y6W8 21-199 limits assumed): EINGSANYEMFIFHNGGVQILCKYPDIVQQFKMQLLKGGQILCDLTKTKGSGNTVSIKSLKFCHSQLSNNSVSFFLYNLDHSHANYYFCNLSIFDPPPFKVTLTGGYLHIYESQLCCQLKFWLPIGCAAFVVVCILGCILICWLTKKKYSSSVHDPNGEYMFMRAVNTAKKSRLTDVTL

[23] = target: human B7-H6, full-length, expressed on transfected Expi293 cells (human) (UniProt Q68D85); assay: flow cytometry on B7-H6-expressing Expi293 cells
human B7-H6, full-length, expressed on transfected Expi293 cells (human), sequence (Q68D85 25-454): as the sequence (Q68D85 25-454) above

[24] = target: human CD28, full-length, expressed on transfected Expi293 cells (human) (UniProt P10747); assay: flow cytometry on CD28-expressing Expi293 cells
[25] = target: CD80 (Homo sapiens (Human)) (UniProt P33681); assay: flow cytometry, cells expressing CD80
[26] = target: PD-1 (Homo sapiens (Human)) (UniProt Q15116); assay: flow cytometry, cells expressing PD-1; vs WT PD-L1 (IgV + IgC) Fc
PD-1 (Homo sapiens (Human)), sequence (Q15116 21-288 limits assumed, form in doubt): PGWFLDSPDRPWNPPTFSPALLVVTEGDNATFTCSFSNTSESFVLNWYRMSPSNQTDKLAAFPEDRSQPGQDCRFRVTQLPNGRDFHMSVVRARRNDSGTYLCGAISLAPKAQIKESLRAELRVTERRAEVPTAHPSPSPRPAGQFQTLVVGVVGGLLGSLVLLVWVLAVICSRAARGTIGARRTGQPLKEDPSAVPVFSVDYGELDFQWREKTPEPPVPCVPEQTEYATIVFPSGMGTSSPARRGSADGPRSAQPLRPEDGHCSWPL

[27] = target: PD-1 (Homo sapiens (Human)) (UniProt Q15116); assay: flow cytometry, cells expressing PD-1
[28] = target: CD80 (Homo sapiens (Human)) (UniProt P33681); assay: flow cytometry, cells expressing CD80; vs WT PD-L1 (IgV + IgC) Fc
Target sequence in this assay (P33681 35-288 limits assumed): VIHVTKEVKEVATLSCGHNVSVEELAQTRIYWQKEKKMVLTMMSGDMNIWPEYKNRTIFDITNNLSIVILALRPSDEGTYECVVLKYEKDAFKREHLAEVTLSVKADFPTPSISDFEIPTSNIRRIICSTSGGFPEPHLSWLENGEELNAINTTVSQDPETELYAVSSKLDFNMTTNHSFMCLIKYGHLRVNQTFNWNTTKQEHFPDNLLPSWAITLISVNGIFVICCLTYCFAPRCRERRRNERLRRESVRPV

[29] = target: PD-1 (Homo sapiens (Human)) (UniProt Q15116); assay: flow cytometry, Jurkat/PD-1 cells; vs wildtype PD-L2 IgV-Fc
PD-1-Fc = assay: Fortebio (BLI), PD-1-Fc
[30] = target: PD-1 (Homo sapiens (Human)) (UniProt Q15116); assay: flow cytometry, Jurkat/PD-1 cells

Domain 1: ICOSL WT / Domain 2: CD80 WT / Fc (Fc fusion), sequence (chain): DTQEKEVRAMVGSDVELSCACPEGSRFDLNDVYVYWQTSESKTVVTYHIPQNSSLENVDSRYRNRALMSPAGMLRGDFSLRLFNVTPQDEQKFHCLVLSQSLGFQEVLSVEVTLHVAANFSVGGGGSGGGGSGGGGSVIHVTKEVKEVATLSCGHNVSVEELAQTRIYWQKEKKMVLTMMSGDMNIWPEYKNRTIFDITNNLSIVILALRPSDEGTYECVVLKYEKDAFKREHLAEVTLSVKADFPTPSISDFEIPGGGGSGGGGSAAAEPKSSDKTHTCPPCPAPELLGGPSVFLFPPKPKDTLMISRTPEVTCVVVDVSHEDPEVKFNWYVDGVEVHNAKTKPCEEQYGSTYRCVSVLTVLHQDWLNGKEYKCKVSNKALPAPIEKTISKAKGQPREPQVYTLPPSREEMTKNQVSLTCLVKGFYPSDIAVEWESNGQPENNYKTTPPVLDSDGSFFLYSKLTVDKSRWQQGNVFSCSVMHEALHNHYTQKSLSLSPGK
Domain 1: CD80 WT / Domain 2: CD80 WT / Fc (Fc fusion), sequence (chain): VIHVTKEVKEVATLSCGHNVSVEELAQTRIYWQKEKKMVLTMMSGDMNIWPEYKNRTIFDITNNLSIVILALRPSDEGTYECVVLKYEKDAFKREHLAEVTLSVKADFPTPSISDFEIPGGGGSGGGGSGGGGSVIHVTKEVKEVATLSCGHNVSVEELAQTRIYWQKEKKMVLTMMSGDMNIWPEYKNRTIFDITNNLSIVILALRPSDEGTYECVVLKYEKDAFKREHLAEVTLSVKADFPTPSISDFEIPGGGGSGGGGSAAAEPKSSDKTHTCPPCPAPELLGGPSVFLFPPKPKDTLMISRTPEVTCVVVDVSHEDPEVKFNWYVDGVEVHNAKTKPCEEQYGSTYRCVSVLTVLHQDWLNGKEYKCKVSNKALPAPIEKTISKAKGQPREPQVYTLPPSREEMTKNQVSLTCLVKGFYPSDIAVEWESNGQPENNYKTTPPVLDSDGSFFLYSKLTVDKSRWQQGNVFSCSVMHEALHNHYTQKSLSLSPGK
PD-L1 (human), sequence (Q9NZQ7 19-290 limits assumed): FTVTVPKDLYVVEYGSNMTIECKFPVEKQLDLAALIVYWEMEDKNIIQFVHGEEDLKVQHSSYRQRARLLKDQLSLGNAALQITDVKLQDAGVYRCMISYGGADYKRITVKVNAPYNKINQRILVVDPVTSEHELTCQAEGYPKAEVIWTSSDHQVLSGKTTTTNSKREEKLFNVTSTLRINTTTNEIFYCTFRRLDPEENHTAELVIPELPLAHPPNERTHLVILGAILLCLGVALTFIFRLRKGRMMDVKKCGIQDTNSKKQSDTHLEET
CTLA4 (human), sequence (P16410 36-223 limits assumed): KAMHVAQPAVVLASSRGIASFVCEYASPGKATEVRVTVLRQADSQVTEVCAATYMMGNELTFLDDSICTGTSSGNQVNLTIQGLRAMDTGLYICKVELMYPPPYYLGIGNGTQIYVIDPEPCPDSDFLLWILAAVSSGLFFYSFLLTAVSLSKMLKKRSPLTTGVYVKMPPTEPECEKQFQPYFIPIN
Wildtype CD112-IgV Fc, sequence (Q92692 32-156 limits assumed): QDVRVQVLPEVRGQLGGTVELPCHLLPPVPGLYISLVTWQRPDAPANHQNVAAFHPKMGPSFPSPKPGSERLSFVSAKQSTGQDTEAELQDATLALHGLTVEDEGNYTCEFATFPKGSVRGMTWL
WT CD112 IgV Fc fusion, sequence (Q92692 32-156 limits assumed): as above

Substance CD80 IgV-Fc I30T/L70R (Fc fusion) has a Ratio of CTLA4:CD28 (CTLA4 (human) [1]) of 0.9, a Fold change to WT (CTLA4 (human) [2]) of 0 fold and an MFI at 66.6 nM (CTLA4 (human) [2]) of 2230 MFI. It also gave an MFI at 22.2 nM (PD-L1 (human) [3]) of 5160 MFI, a Fold change to WT (CD28 (human) [4]) of 0.1 fold and an MFI at 66.6 nM (CD28 (human) [4]) of 2600 MFI.

Substance “CD112 variant A95V, A112I IgV-Fc fusion (from UniProt Q92692 32-156)” has an MFI [5] of 51900 MFI.

“CD112 variant G82S, S118Y IgV-Fc (from UniProt Q92692 32-156) (Fc fusion)” gave an MFI 100 nM (TIGIT (human)) of 4270 MFI.

“CD112 variant S118Y IgV-Fc fusion (from UniProt Q92692 32-156)” showed an MFI [6] of 6540 MFI.

“Domain 1: CD80 (R29H/Y31H/T41G/Y87N/E88G/K89E/D90N/A91G/P109S) / Domain 2: NKp30 (L30V/A60V/S64P/S86G) / Fc (Fc fusion)” was tested, and the MFI (CD28 (human) [7]) was 4340, the MFI (human B7-H6 (human) [8]) was 55700 and the WT parental MFI ratio (CD28 (human) [9]) was 0.32. It also gave a WT parental MFI ratio (human B7-H6 (human) [10]) of 0.5.

In the case of “Domain 1: CD80 I67T/L70Q/A91G/T120S / Domain 2: CD80 E88D/K89R/D90K/A91G/F92Y/K93R / Fc (Fc fusion)”, the MFI (PD-L1 (human) [11]) is reported as 995, the MFI (CD28 (human) [7]) is reported as 938 and the WT parental MFI ratio (PD-L1 (human) [12]) is reported as 0.16. It also gave a WT parental MFI ratio (CD28 (human) [13]) of 0.57.

“Domain 1: CD80 R29V/Y31F/K36G/M38L/M43Q/E81R/V83I/L85I/K89R/D90L/A91E/F92N/K93Q/R94G / Domain 2: CD80 E88D/K89R/D90K/A91G/F92Y/K93R / Fc (Fc fusion)” showed an MFI (PD-L1 (human) [11]) of 1930, an MFI (CTLA4 (human) [14]) of 1990 and a WT parental MFI ratio (PD-L1 (human) [12]) of 0.31. For the same substance, the WT parental MFI ratio (CTLA4 (human) [15]) was 0.42.

“Domain 1: CD80 WT / Domain 2: CD80 WT / Fc (Fc fusion)” showed an MFI (PD-L1 (human) [11]) of 6300, an MFI (CTLA4 (human) [14]) of 4700 and an MFI (CD28 (human) [7]) of 1630.

“Domain 1: CD80 WT / Domain 2: Nkp30 WT / Fc (Fc fusion)” gave an MFI (CD28 (human) [7]) of 13700, an MFI (human B7-H6 (human) [8]) of 110000 and a WT parental MFI ratio (human B7-H6 (human) [10]) of 1.

“Domain 1: ICOSL WT / Domain 2: CD80 WT / Fc (Fc fusion)” was tested, and the MFI (PD-L1 (human) [11]) was 2970, the MFI (human ICOS (human)) was 14400 and the MFI (CD28 (human) [7]) was 3000. The MFI (PD-L1 (human) [16]) was 3000 and the MFI (CTLA4 (human) [17]) was 14400.

In the case of “Domain 1: NKp30 WT / Domain 2: CD80 WT / Fc (Fc fusion)”, the WT parental MFI ratio (human B7-H6 (human) [18]) is reported as 1, the MFI (CD28 (human) [7]) is reported as 7020 and the MFI (human B7-H6 (human) [8]) is reported as 88800.

With “Domain 1: NKp30 WT / Domain 2: CD86 WT / Fc (Fc fusion)” the MFI (CD28 (human) [7]) was 1690, the MFI (human B7-H6 (human) [8]) was 14100 and the WT parental MFI ratio (human B7-H6 (human) [19]) was 1.

Work on “WT CD112 IgV Fc fusion (from UniProt Q92692 32-156)” yielded an MFI at 20 nM [20] of 2500 and an MFI at 20 nM [21] of 1660.

“Wildtype CD112-IgV Fc (from UniProt Q92692 32-156) (Fc fusion)” gave an MFI at 100 nM (CD112R (human)) of 4840 MFI and an MFI at 100 nM (CD96) of 8540 MFI.

“stacked Fc fusion, Domain 1: ICOSL WT / Domain 2: Nkp30 WT” was tested, and the MFI [22] was 70300 MFI, the MFI [23] was 118000 MFI and the WT parental MFI ratio (ratio to WT stack) [23] was 1. The MFI [24] was 7920 MFI.

In the case of “variant PD-L1 ECD-Fc I36T, G52R, M97L, V112A, K144E, V175A, P198T (Fc fusion)”, the MFI at 20 nM [25] is reported as 149, the Fold Change Compared to WT PD-L1 [26] is reported as 0 fold and the MFI at 20 nM [27] is reported as 81.

“variant PD-L1 ECD-Fc I36T, I46V, D55G, M97L, K106E, K144E, T185A, R195G (Fc fusion)” showed an MFI at 20 nM [25] of 190, a Fold Change Compared to WT PD-L1 [26] of 0 fold and an MFI at 20 nM [27] of 69.

For “variant PD-L1 ECD-Fc K57R, S99G, F189L (from UniProt Q9NZQ7 19-239) (Fc fusion)”, the MFI at 20 nM [25] was 12900 and the Fold Change Compared to WT PD-L1 [28] was 96.3 fold.

Work on “variant PD-L2 IgV-Fc H15Q, R76G, I85F (SEQ ID NO 1505) (Fc fusion)” yielded a Fold increase over wildtype PD-L2 IgV-Fc [29] of 0.19 fold, a Fortebio binding to PD-1-Fc Response Units (Response Units) (PD-1-Fc) of -0.006 and an MFI at 50 nM [30] of 1890.

With “variant PD-L2 IgV-Fc I13V, H15Q, T47A, Q82R, V89D (SEQ ID NO 1545) (Fc fusion)” the Fold increase over wildtype PD-L2 IgV-Fc [29] was 6.2 fold, the Fortebio binding to PD-1-Fc Response Units (Response Units) (PD-1-Fc) was 1.45 and the MFI at 50 nM [30] was 61000.
